± gives the standard deviation.
Assay: protein stability index of a GFP-peptide fusion (GPS, HEK-293T) (PSI 1-6); higher = more stable
[1] = treatment: DMSO, c terminus: a fixed tail appended
[2] = treatment: MLN4924 1 uM, 8 h, c terminus: a fixed tail appended
[3] = treatment: DMSO, c terminus: native
[4] = treatment: MLN4924 1 uM, 8 h, c terminus: native
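Note: 24-mer peptide tiles fused after GFP, lentivirally expressed, FACS-sorted into six equal bins by GFP/DsRed ratio, decoded by Illumina sequencing, PSI is the read-weighted mean bin number.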

Sequence | protein stability index [1] | protein stability index [2] | protein stability index [3] | protein stability index [4]
HYIAGAHGNEVLGRELLLLLVQFV [CPXM2] | 2 ± 0.075 | 2.22 ± 0.37 |  | 
SLADGGSASPIKDQPVMAVKTGED [FANCE] | 5.46 ± 0.23 | 5.6 ± 0.16 |  | 
GSACSLLCCCGRDPSEEHSLLVN [MCOLN1] |  |  | 2.3 ± 0.39 | 2.27 ± 0.38
WNVLMWTSLFLGNGVLLCFYSQEW [SOAT1] | 2.99 ± 0.93 | 2.7 ± 0.38 |  | 
PGRSRMISQEEFARQLQLSDPQTV [LPCAT4] | 4.44 ± 0.22 | 4.38 ± 0.12 |  | 
LMDEGASSEKKRQSSADGSQPPKK [RBBP5] | 5.56 ± 0.36 | 5.53 ± 0.24 |  | 
QCWKSLFIDTYSDVGRYIDHYAAI [FBXO3] | 2.65 ± 0.48 | 2.8 ± 0.72 |  | 
KAVSEMRQKIWNNMPKDHPVSCCL [DYNC2LI1] | 2.41 ± 0.21 | 2.46 ± 0.29 |  | 
MAAGNTVIAKPSELTSVTAWMLCK [ALDH8A1] | 2.44 ± 0.1 | 2.35 ± 0.23 |  | 
QGLIEDCQLALQQKRETLSPLCLI [KCTD13] | 2.47 ± 0.17 | 2.64 ± 0.25 |  | 
GILRARRGEGIQAPSFSSYLYFLF [SOAT2] | 2.29 ± 0.31 | 2.11 ± 0.28 |  | 
MATYLRYVRRLDFFEKPDYDYLRK [CSNK1G3] | 2.31 ± 0.42 | 2.32 ± 0.12 |  | 
LCIIWFSFELLVRFFACPSKATFS [KCNA3] | 3.13 ± 0.39 | 3.12 ± 0.58 |  | 
TEPEDDRGPVVPKHSTFGQSLTQR [GNAS] | 4.89 ± 0.31 | 4.85 ± 0.2 |  | 
SRVTDAAFNFLLVWYYCTLTIRES [TMEM120A] | 3 ± 0.1 | 2.62 ± 0.45 |  | 
ADFEQKMLDSALRFQAMEETHLRH [FCHO1] | 3.88 ± 0.29 | 3.93 ± 0.24 |  | 
FYGETVADYFATFVQREEQLQFLI [CDS1] | 2.71 ± 0.79 | 2.43 ± 0.32 |  | 
NRDLRKASVTIQARAEQEEEFISN [CCDC6] | 4.96 ± 0.26 | 5.05 ± 0.27 |  | 
RSTNLLAAETASLEEQLQGWGEVM [ARL6IP1] | 3.85 ± 0.32 | 4.15 ± 0.23 |  | 
RLHLAFKRQVPTEQAQAYAERLGV [RAB40B] | 3.13 ± 0.2 | 3.1 ± 0.26 |  | 
LCEYFSQHLGEYENVLAALEGLNL [NECAB1] | 2.61 ± 0.35 | 2.63 ± 0.22 |  | 
YYTTPIYRFRMKCHLCVNYIEMQT [YJU2B] | 2.73 ± 0.43 | 2.51 ± 0.64 |  | 

Sequence | protein stability index [1] | protein stability index [2] | protein stability index [3] | protein stability index [4]
ILELLVLEQFLAILPKELQAWVQK [ZNF396] | 2.67 ± 0.24 | 2.65 ± 0.5 |  | 
TCVAVGSPMPYVKWMLGAEDLTPE [PTPRD] | 2.97 ± 0.33 | 3.14 ± 0.38 |  | 
WRWTGFNFGFDLLVTYTNRYIIFK [GMCL1] | 2.63 ± 0.58 | 3.02 ± 0.45 |  | 
IDLSHVTSKCGSLKNIRHRPGGGR [MAP2] | 3.18 ± 0.15 | 3.35 ± 0.3 |  | 
MNTNSKEVLSLGVQVPEAWEELLT [ZSCAN9] | 3.08 ± 0.47 | 3.52 ± 0.34 |  | 
FRRGSGSACSLLCCCGRDPSEEHS [MCOLN1] | 3.58 ± 0.35 | 3.33 ± 0.24 |  | 
LETHFRDVSSTEEFLELSPQKLKE [GAN] | 5.38 ± 0.18 | 5.37 ± 0.084 |  | 
VCYQYPGYRGYQYILECDHHGGDY [CRYBA1] | 2.35 ± 0.4 | 2.08 ± 0.18 |  | 
RTTVFQYPVGWPPVQELPPSLRAP [ZMAT5] | 2.8 ± 0.17 | 2.79 ± 0.29 |  | 
QQQQLTFTAALEHCRENAHDKIRP [SPACA9] | 4.1 ± 0.22 | 4.03 ± 0.16 |  | 
TTDPDLILEVLRSSPMVQVDEKGE [LARP4] | 4.61 ± 0.32 | 4.73 ± 0.24 |  | 
WVFHHYVSTFLSGVMLTWPDGLMY [TMEM120A] | 3.14 ± 0.17 | 3.11 ± 0.24 |  | 
CPLKNPTFLDYVRPRSWTCRYVF [SOAT1] |  |  | 3.22 ± 0.47 | 3.06 ± 0.42
ALQRLDLRNNQISHKGAEELALAL [LRRC45] | 3.22 ± 0.24 | 3.05 ± 0.43 |  | 
MEKFREDEGFIKEEERPLPEKEYQ [KCNA1] | 5.38 ± 0.32 | 5.53 ± 0.31 |  | 
SRAEPIRTTVFQYPVGWPPVQELP [ZMAT5] | 2.38 ± 0.41 | 2.82 ± 0.34 |  | 
QQELRELRRELELLGRERDRVQVE [PRPH] | 4.06 ± 0.52 | 4.39 ± 0.29 |  | 
ETFRQQFRQFGYQDSPGPHEALSR [ZNF396] | 3.34 ± 0.22 | 3.68 ± 0.043 |  | 
NKVLVCPMKSAPVMLTLSDSKHVV [RBBP5] | 2.57 ± 0.25 | 2.75 ± 0.19 |  | 
PGSLGPWKITIYDQENFQGKRMEF [CRYBA1] | 2.25 ± 0.33 | 2.18 ± 0.39 |  | 
PYMSIQPAEDPDDYDDGFSMKHTA [SMARCE1] | 4.88 ± 0.12 | 4.78 ± 0.21 |  | 
PKRCLKAREHFGTVKTHLTSLKTK [TSN] | 3.72 ± 0.32 | 3.88 ± 0.34 |  | 

Sequence | protein stability index [1] | protein stability index [2] | protein stability index [3] | protein stability index [4]
SSYSSCYSFGSGGGYGSSFGGVDG [KRT17] | 2.69 ± 0.38 | 2.53 ± 0.2 |  | 
NRKSILSRHLNSQVKKTTTRWCHI [PHTF1] | 2.57 ± 0.55 | 2.57 ± 0.39 |  | 
VQRKSDFDQTVFQEVFEPPHYELC [NETO1] | 3.44 ± 0.23 | 3.62 ± 0.3 |  | 
LRALREKLFAHSSDLLSEFKKHDA [PPEF2] | 2.1 ± 0.33 | 2.29 ± 0.42 |  | 
LENREEPWVKELQDSKEMKQLLDS [ZNF449] | 5.49 ± 0.18 | 5.36 ± 0.23 |  | 
FQQLMVETCSCGYYLHPLPAGAEY [SCNN1D] | 2.6 ± 0.69 | 2.8 ± 0.69 |  | 
SKNEVGIFTTPNFDETSSATTIST [KMT2E] | 4.76 ± 0.22 | 4.79 ± 0.17 |  | 
SFWNSSHPRGWNDHVHILDTETFT [KLHDC2] | 2.54 ± 0.17 | 2.39 ± 0.3 |  | 
RLTQYMDGSGMPKTMQSEETRVWH [CAMK2D] | 3.44 ± 0.47 | 3.51 ± 0.19 |  | 
RRQTSMTDFYHSKRRLIFSKRKP [CDKN1A] |  |  | 3.33 ± 0.28 | 3.71 ± 0.53
ADDAAAVAAKCPRLSECSSPPDYL [TRIB1] | 5.03 ± 0.79 | 5.22 ± 0.17 |  | 
MNHFTVNLNREEKIIREIDFYRED [TRIM55] | 3.46 ± 0.4 | 3.61 ± 0.33 |  | 
QSDTLEQREEHELVHVMERSLSPS [RAD54B] | 5.45 ± 0.26 | 5.33 ± 0.23 |  | 
ATSESTTVEPGKLDVGATEGQDLQ [DRICH1] | 5.46 ± 0.27 | 5.5 ± 0.22 |  | 
TLEKCEKVKTMEVTSVSIELEKNF [TRIM39] | 4.16 ± 0.21 | 4.15 ± 0.23 |  | 
LDMNFSLENREEPWVKELQDSKEM [ZNF449] | 5.31 ± 0.18 | 5.35 ± 0.32 |  | 
REIKVTLVFEHVDQDLRTYLDKAP [CDK4] | 2.65 ± 0.56 | 2.68 ± 0.72 |  | 
GKYNAMVLELLGPSLEDLFDLCDR [CSNK1G3] | 2.92 ± 0.28 | 2.18 ± 0.28 |  | 
RRGSWRLPYTDGLSWELLDSHLGG [CTBP1-DT] | 2.09 ± 0.09 | 2.66 ± 0.26 |  | 
PGPPGPTGVPGSPGHIGPPGPTGP [EMID1] | 5.29 ± 0.11 | 5.13 ± 0.44 |  | 
ERFLELAPDFVGDILWEHLEQMIK [ETS2] | 2.36 ± 0.58 | 2.89 ± 0.51 |  | 

Reference: the supplement of paper PMC10567573
